Measurements from US20140072613A1, “Compositions and Methods for Treating Cutaneous Scarring” (priority 2012, published 2014).

How the values were obtained:
Assay in all cases: biochemical
Type in all cases: biochemical
266 human kinases [1] = target: 266 human kinases (Homo sapiens, UniProt P36888, D835Y); conditions: Flt3(D835Y)(h); 100 μM
Method in brief: (§1)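 Radiometric filter-binding format: a positively charged substrate takes up radiolabelled phosphate from ATP unless the kinase is inhibited, then is captured on a negatively charged filter membrane. Counts from scintillation are expressed relative to a 100% activity control.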

266 human kinases [2] = target: T1, 266 human kinases (Homo sapiens, UniProt Q8IW41); conditions: PRAK(h); 100 μM
T1 sequence (Q8IW41 1-473): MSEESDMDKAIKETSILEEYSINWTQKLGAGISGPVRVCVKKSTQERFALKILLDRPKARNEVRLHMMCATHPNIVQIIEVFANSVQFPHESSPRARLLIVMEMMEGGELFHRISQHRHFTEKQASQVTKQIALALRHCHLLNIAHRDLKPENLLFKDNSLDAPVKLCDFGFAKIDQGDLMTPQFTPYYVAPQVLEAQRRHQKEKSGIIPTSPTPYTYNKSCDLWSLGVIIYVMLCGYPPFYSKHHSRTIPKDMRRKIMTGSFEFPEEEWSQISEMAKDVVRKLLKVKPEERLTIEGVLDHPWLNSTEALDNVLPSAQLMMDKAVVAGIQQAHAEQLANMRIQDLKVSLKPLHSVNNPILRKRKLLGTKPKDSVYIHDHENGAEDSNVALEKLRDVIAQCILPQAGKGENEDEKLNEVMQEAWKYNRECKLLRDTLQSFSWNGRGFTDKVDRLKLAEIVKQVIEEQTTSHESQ
Method in brief: as §1

266 human kinases [3] = target: T2, 266 human kinases (Homo sapiens, UniProt Q9UBE8); conditions: NLK(h); 100 μM
T2 sequence (Q9UBE8 1-527): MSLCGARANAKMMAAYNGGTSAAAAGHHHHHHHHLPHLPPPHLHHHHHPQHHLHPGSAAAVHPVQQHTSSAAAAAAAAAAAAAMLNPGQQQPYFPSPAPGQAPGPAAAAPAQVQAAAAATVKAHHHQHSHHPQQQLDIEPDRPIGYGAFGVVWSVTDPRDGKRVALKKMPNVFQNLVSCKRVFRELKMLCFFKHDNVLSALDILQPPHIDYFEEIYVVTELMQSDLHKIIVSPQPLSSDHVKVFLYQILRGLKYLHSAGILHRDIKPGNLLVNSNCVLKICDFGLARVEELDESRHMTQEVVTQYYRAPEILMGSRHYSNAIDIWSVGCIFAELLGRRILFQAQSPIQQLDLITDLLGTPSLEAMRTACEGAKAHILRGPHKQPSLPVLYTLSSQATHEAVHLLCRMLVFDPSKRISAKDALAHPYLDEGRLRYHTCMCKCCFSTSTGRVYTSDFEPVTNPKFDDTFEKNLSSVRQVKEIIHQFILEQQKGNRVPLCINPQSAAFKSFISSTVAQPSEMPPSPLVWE
Method in brief: as §1

266 human kinases [4] = target: T3, 266 human kinases (Homo sapiens, UniProt Q7L7X3); conditions: TAO1(h); 100 μM
T3 sequence (Q7L7X3 1-1001): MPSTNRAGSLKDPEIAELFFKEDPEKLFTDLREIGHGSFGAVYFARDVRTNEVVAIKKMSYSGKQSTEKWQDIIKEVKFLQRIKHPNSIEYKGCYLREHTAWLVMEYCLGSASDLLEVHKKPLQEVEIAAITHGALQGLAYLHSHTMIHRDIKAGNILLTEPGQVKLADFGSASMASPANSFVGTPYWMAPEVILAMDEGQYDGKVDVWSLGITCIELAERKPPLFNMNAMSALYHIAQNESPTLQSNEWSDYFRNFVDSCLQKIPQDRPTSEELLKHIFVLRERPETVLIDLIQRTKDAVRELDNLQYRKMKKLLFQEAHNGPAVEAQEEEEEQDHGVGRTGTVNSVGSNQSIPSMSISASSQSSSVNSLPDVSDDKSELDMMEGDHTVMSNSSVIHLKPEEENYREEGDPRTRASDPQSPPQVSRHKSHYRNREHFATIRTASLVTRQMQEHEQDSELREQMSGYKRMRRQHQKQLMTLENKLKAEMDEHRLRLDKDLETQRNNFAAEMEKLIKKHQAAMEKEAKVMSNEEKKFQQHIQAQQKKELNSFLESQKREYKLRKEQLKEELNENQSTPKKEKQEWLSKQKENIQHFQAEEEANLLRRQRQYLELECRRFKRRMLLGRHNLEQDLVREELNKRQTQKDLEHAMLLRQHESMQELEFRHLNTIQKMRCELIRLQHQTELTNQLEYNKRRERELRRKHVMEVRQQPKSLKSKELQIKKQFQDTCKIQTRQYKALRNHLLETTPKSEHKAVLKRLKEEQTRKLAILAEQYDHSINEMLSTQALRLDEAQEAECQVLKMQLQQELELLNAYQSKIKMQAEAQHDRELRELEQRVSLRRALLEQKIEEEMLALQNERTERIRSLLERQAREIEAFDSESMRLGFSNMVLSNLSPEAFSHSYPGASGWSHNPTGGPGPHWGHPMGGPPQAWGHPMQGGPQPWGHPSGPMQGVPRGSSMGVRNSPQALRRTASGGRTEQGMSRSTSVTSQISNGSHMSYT
Method in brief: as §1

266 human kinases [5] = target: 266 human kinases (Homo sapiens, UniProt P00519, H396P); conditions: Abl(H8396P)(h); 100 μM
Method in brief: as §1

266 human kinases [6] = target: 266 human kinases (Homo sapiens, UniProt P35916); conditions: Flt4(h); 100 μM
Method in brief: as §1

266 human kinases [7] = target: 266 human kinases (Homo sapiens, UniProt Q15418); conditions: Rsk1(h); 100 μM
Method in brief: as §1

266 human kinases [8] = target: 266 human kinases (Homo sapiens, UniProt P53350); conditions: Plk1(h); 100 μM
Method in brief: as §1

266 human kinases [9] = target: 266 human kinases (Homo sapiens, UniProt P49760); conditions: CLK2(h); 100 μM
Method in brief: as §1

266 human kinases [10] = target: 266 human kinases (Homo sapiens, UniProt Q9Y6M4); conditions: CK1γ3(h); 100 μM
Method in brief: as §1

266 human kinases (Homo sapiens, UniProt P35916), sequence (P35916 25-1363): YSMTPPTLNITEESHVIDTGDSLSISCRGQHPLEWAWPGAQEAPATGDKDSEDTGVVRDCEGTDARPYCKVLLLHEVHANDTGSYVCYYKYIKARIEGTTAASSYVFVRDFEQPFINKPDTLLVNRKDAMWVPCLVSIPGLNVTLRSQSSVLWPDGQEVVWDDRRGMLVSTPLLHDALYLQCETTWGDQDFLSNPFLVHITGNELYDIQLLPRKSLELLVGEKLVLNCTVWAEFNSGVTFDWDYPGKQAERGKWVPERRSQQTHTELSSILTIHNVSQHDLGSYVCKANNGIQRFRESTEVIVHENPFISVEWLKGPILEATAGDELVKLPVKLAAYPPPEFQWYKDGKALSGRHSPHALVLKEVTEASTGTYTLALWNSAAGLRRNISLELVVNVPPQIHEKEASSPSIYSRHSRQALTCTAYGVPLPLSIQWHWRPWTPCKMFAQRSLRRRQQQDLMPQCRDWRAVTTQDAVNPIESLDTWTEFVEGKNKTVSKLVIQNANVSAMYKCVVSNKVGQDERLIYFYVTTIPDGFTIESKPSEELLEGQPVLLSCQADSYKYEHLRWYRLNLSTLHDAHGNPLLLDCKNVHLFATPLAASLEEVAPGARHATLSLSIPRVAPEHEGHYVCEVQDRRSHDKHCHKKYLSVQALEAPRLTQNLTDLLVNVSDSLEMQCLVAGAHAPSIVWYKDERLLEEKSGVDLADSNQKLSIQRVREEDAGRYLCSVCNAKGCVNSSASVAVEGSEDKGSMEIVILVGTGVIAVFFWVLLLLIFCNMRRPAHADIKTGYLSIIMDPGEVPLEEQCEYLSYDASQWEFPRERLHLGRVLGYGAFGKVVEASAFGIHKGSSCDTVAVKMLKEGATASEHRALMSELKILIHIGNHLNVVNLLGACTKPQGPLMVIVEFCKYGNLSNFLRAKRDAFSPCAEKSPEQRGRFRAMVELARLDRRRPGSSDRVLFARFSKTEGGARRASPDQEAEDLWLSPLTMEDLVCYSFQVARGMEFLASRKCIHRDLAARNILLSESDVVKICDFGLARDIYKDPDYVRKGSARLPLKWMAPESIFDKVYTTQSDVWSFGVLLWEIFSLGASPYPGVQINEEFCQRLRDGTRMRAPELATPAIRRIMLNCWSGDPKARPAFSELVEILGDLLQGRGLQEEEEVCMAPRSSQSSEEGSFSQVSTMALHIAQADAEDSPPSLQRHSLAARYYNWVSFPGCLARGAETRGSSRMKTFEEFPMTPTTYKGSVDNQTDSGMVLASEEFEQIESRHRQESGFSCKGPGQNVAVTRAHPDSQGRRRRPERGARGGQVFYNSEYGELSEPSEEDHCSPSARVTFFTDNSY
266 human kinases (Homo sapiens, UniProt P53350), sequence (P53350 whole entry): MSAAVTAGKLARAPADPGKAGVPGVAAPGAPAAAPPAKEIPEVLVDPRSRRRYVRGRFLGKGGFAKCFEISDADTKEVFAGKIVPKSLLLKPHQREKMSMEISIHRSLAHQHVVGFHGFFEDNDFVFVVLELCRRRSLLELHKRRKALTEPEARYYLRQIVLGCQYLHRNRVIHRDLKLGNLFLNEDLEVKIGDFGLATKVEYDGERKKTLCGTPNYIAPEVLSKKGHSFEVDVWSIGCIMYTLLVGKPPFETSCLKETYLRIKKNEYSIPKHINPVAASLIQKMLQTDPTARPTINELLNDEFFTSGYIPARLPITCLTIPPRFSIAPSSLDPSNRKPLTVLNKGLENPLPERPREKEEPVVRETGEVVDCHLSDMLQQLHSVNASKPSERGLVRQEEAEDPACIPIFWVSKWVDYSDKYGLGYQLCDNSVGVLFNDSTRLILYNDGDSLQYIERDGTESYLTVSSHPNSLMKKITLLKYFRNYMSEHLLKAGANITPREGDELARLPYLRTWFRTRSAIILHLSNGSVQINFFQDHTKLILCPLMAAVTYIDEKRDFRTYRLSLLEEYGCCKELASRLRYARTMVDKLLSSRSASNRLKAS
266 human kinases (Homo sapiens, UniProt Q15418), sequence (Q15418 whole entry): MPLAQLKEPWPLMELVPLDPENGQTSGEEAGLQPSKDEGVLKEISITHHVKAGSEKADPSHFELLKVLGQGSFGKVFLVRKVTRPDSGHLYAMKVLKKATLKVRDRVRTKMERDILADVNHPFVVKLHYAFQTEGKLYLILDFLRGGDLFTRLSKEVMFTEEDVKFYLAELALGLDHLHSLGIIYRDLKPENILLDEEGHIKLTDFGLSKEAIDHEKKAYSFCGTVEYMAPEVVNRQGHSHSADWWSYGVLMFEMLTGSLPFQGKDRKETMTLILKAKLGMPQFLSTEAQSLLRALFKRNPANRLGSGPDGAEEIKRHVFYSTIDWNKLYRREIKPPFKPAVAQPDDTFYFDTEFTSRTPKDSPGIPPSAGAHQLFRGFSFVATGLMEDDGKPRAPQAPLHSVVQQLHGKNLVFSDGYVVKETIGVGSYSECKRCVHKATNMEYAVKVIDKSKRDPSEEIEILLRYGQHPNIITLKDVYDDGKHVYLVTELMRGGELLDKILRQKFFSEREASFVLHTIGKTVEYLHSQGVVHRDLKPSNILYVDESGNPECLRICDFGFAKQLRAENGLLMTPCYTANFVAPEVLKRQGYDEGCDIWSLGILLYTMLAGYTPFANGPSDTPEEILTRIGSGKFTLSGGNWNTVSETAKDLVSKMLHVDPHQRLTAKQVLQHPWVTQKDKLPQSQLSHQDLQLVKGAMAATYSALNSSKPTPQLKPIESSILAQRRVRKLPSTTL
266 human kinases (Homo sapiens, UniProt P49760), sequence (P49760 whole entry): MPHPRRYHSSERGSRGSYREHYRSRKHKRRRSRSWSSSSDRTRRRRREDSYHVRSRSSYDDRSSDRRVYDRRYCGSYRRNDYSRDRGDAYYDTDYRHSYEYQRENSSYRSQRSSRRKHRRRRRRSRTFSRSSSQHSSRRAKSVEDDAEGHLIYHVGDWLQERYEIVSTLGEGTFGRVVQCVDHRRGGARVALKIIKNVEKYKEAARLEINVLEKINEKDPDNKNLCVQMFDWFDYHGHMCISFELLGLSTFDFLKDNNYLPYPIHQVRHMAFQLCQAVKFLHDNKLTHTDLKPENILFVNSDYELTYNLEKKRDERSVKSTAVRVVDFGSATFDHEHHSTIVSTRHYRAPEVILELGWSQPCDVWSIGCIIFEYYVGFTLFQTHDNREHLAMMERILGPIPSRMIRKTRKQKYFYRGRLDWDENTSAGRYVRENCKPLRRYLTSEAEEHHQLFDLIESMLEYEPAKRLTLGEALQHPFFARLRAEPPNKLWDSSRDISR
266 human kinases (Homo sapiens, UniProt Q9Y6M4), sequence (Q9Y6M4 whole entry): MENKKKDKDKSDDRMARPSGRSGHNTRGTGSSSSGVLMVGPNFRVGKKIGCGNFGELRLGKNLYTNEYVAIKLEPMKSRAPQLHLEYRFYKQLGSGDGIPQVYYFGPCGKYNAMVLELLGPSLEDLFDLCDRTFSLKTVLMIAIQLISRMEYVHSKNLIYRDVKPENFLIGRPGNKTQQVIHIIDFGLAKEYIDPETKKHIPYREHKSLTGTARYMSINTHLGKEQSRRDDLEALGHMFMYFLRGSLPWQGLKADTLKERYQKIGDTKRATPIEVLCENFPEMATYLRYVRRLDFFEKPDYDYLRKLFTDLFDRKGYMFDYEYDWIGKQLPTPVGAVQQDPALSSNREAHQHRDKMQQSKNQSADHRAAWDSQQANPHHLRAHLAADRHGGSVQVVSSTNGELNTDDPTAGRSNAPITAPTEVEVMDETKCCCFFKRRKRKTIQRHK

Sequence | % activity (266 human kinases [1]) | % activity (266 human kinases [2]) | % activity (266 human kinases [3]) | % activity (266 human kinases [4]) | % activity (266 human kinases [5]) | % activity (266 human kinases [6]) | % activity (266 human kinases [7]) | % activity (266 human kinases [8]) | % activity (266 human kinases [9]) | % activity (266 human kinases [10])
HRRIKAWLKKIKALARQLGVAA (mammal) [MMI-0500] | 65% | 95% | 19% | 24% | 51% | 73% | 34% | – | – | –
YARAAARQARAKALNRQLGVA (mammal) [MMI-0200] | – | – | – | – | – | – | – | 128% | 97% | 96%
